In paper PMC10786891, “Massively parallel profiling of RNA-targeting CRISPR-Cas13d” one finds Kd data, which are given here for 23 molecules.

Sequences and labels used below:
T1: EsCas13d, nuclease-dead (Eubacterium siraeum, UniProt B0MS50, R295A;H300A;R849A;H854A)
T1 sequence: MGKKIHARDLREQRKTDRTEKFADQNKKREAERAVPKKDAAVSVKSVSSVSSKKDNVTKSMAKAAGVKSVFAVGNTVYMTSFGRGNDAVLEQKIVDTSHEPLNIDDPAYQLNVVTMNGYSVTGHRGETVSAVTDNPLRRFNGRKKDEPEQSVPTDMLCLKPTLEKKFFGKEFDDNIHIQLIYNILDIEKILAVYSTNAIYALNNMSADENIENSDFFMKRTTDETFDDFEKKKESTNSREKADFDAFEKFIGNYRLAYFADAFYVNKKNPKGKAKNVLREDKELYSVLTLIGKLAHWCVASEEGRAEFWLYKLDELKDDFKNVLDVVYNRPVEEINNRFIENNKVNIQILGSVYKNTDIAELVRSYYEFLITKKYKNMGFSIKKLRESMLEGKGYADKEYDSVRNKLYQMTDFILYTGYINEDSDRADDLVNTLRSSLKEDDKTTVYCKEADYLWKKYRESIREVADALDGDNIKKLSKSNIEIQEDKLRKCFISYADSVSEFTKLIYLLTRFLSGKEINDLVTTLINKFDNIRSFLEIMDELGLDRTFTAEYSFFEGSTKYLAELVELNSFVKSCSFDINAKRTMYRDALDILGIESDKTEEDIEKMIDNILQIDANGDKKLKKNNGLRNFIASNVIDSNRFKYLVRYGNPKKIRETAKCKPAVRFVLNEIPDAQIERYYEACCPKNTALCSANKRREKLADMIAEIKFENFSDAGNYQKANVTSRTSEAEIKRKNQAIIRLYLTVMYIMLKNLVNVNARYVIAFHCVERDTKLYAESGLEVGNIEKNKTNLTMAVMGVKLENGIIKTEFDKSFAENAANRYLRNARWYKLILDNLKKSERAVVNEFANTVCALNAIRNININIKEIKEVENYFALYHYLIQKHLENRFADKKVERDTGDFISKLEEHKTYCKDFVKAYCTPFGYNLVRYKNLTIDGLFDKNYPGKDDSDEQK

B1: target 1 insC 3' of 19,insA 3' of 13 (mixed)
RNA 1: CACCCGUGCAAAAAUGCAGGGGUCUAAAACUGAGCGGAUAACCUCUCUAUGG
RNA 2: GGGAAUGGAUCCACAUCUACGAAUUCGUACCAUCAGAGAGAGUUAUCCGCUCACCGAGAUCGGAAGAGCACACGU
B2: target 1 insA 3' of 17,insC 3' of 13 (mixed)
RNA 1: CACCCGUGCAAAAAUGCAGGGGUCUAAAACUGAGCGGAUAACCUCUCUAUGG
RNA 2: GGGAAUGGAUCCACAUCUACGAAUUCGUACCAUAGAAGAGCGUUAUCCGCUCACCGAGAUCGGAAGAGCACACGU
B3: target 1 insU 3' of 15,insG 3' of 14 (mixed)
RNA 1: CACCCGUGCAAAAAUGCAGGGGUCUAAAACUGAGCGGAUAACCUCUCUAUGG
RNA 2: GGGAAUGGAUCCACAUCUACGAAUUCGUACCAUAGAGUAGGGUUAUCCGCUCACCGAGAUCGGAAGAGCACACGU
B4: target 1 insG 3' of 8,insU 3' of 2 (mixed)
RNA 1: CACCCGUGCAAAAAUGCAGGGGUCUAAAACUGAGCGGAUAACCUCUCUAUGG
RNA 2: GGGAAUGGAUCCACAUCUACGAAUUCGUACCAUAGAGAGGUUAUGCCGCUCUACCGAGAUCGGAAGAGCACACGU
B5: target 1 insG 3' of 21,insG 3' of 8 (mixed)
RNA 1: CACCCGUGCAAAAAUGCAGGGGUCUAAAACUGAGCGGAUAACCUCUCUAUGG
RNA 2: GGGAAUGGAUCCACAUCUACGAAUUCGUACCGAUAGAGAGGUUAUGCCGCUCACCGAGAUCGGAAGAGCACACGU
B6: target 1 U3C,G12C (mixed)
RNA 1: CACCCGUGCAAAAAUGCAGGGGUCUAAAACUGAGCGGAUAACCUCUCUAUGG
RNA 2: GGGAAUGGAUCCACAUCUACGAAUUCGUACCAUAGAGAGCUUAUCCGCCCACCGAGAUCGGAAGAGCACACGU
B7: target 1 insA 3' of 6,insC 3' of 1 (mixed)
RNA 1: CACCCGUGCAAAAAUGCAGGGGUCUAAAACUGAGCGGAUAACCUCUCUAUGG
RNA 2: GGGAAUGGAUCCACAUCUACGAAUUCGUACCAUAGAGAGGUUAUCCAGCUCACCCGAGAUCGGAAGAGCACACGU
B8: target 1 C22G (mixed)
RNA 1: CACCCGUGCAAAAAUGCAGGGGUCUAAAACUGAGCGGAUAACCUCUCUAUGG
RNA 2: GGGAAUGGAUCCACAUCUACGAAUUCGUAGCAUAGAGAGGUUAUCCGCUCACCGAGAUCGGAAGAGCACACGU
B9: target 1 insU 3' of 13,insC 3' of 3 (mixed)
RNA 1: CACCCGUGCAAAAAUGCAGGGGUCUAAAACUGAGCGGAUAACCUCUCUAUGG
RNA 2: GGGAAUGGAUCCACAUCUACGAAUUCGUACCAUAGAGAGUGUUAUCCGCUCCACCGAGAUCGGAAGAGCACACGU
B10: target 1 C2G,U8A (mixed)
RNA 1: CACCCGUGCAAAAAUGCAGGGGUCUAAAACUGAGCGGAUAACCUCUCUAUGG
RNA 2: GGGAAUGGAUCCACAUCUACGAAUUCGUACCAUAGAGAGGUUAACCGCUGACCGAGAUCGGAAGAGCACACGU
B11: target 1 insA 3' of 13,insU 3' of 4 (mixed)
RNA 1: CACCCGUGCAAAAAUGCAGGGGUCUAAAACUGAGCGGAUAACCUCUCUAUGG
RNA 2: GGGAAUGGAUCCACAUCUACGAAUUCGUACCAUAGAGAGAGUUAUCCGCUUCACCGAGAUCGGAAGAGCACACGU
B12: target 1 insG 3' of 22,insC 3' of 15 (mixed)
RNA 1: CACCCGUGCAAAAAUGCAGGGGUCUAAAACUGAGCGGAUAACCUCUCUAUGG
RNA 2: GGGAAUGGAUCCACAUCUACGAAUUCGUACGCAUAGAGCAGGUUAUCCGCUCACCGAGAUCGGAAGAGCACACGU
B13: target 1 C6A,U10G (mixed)
RNA 1: CACCCGUGCAAAAAUGCAGGGGUCUAAAACUGAGCGGAUAACCUCUCUAUGG
RNA 2: GGGAAUGGAUCCACAUCUACGAAUUCGUACCAUAGAGAGGUGAUCAGCUCACCGAGAUCGGAAGAGCACACGU
B14: target 1 insA 3' of 19,insC 3' of 15 (mixed)
RNA 1: CACCCGUGCAAAAAUGCAGGGGUCUAAAACUGAGCGGAUAACCUCUCUAUGG
RNA 2: GGGAAUGGAUCCACAUCUACGAAUUCGUACCAUAAGAGCAGGUUAUCCGCUCACCGAGAUCGGAAGAGCACACGU
B15: target 1 insU 3' of 20,insA 3' of 15 (mixed)
RNA 1: CACCCGUGCAAAAAUGCAGGGGUCUAAAACUGAGCGGAUAACCUCUCUAUGG
RNA 2: GGGAAUGGAUCCACAUCUACGAAUUCGUACCAUUAGAGAAGGUUAUCCGCUCACCGAGAUCGGAAGAGCACACGU
B16: target 1 A16U,G17A (mixed)
RNA 1: CACCCGUGCAAAAAUGCAGGGGUCUAAAACUGAGCGGAUAACCUCUCUAUGG
RNA 2: GGGAAUGGAUCCACAUCUACGAAUUCGUACCAUAAUGAGGUUAUCCGCUCACCGAGAUCGGAAGAGCACACGU
B17: target 1 G5C,C22A (mixed)
RNA 1: CACCCGUGCAAAAAUGCAGGGGUCUAAAACUGAGCGGAUAACCUCUCUAUGG
RNA 2: GGGAAUGGAUCCACAUCUACGAAUUCGUAACAUAGAGAGGUUAUCCCCUCACCGAGAUCGGAAGAGCACACGU
B18: target 1 insU 3' of 12,insG 3' of 6 (mixed)
RNA 1: CACCCGUGCAAAAAUGCAGGGGUCUAAAACUGAGCGGAUAACCUCUCUAUGG
RNA 2: GGGAAUGGAUCCACAUCUACGAAUUCGUACCAUAGAGAGGUUUAUCCGGCUCACCGAGAUCGGAAGAGCACACGU
B19: target 1 insC 3' of 20,insA 3' of 15 (mixed)
RNA 1: CACCCGUGCAAAAAUGCAGGGGUCUAAAACUGAGCGGAUAACCUCUCUAUGG
RNA 2: GGGAAUGGAUCCACAUCUACGAAUUCGUACCACUAGAGAAGGUUAUCCGCUCACCGAGAUCGGAAGAGCACACGU
B20: target 1 insA 3' of 12,insC 3' of 12 (mixed)
RNA 1: CACCCGUGCAAAAAUGCAGGGGUCUAAAACUGAGCGGAUAACCUCUCUAUGG
RNA 2: GGGAAUGGAUCCACAUCUACGAAUUCGUACCAUAGAGAGGACUUAUCCGCUCACCGAGAUCGGAAGAGCACACGU
B21: target 1 insA 3' of 21,insG 3' of 3 (mixed)
RNA 1: CACCCGUGCAAAAAUGCAGGGGUCUAAAACUGAGCGGAUAACCUCUCUAUGG
RNA 2: GGGAAUGGAUCCACAUCUACGAAUUCGUACCAAUAGAGAGGUUAUCCGCUGCACCGAGAUCGGAAGAGCACACGU
B22: target 1 A1U,A18U (mixed)
RNA 1: CACCCGUGCAAAAAUGCAGGGGUCUAAAACUGAGCGGAUAACCUCUCUAUGG
RNA 2: GGGAAUGGAUCCACAUCUACGAAUUCGUACCAUUGAGAGGUUAUCCGCUCUCCGAGAUCGGAAGAGCACACGU
B23: target 1 A9C,U10G (mixed)
RNA 1: CACCCGUGCAAAAAUGCAGGGGUCUAAAACUGAGCGGAUAACCUCUCUAUGG
RNA 2: GGGAAUGGAUCCACAUCUACGAAUUCGUACCAUAGAGAGGUGCUCCGCUCACCGAGAUCGGAAGAGCACACGU

For this data set, the target named is T1, EsCas13d, nuclease-dead. Description: crRNA (strand 1, pre-loaded); Mg2+; 40 mM Tris-HCl pH 7.5, 150 mM NaCl, 6 mM MgCl2, 1 mM DTT, 0.1% Tween-20, 0.2 mg/ml BSA; 25 C; 10 min per concentration, then washed. The following applies: tags: His6-TwinStrep-SUMO cleaved; N-terminal SNAP kept (SNAP-Surface 488); label: 3' end held by stalled T7 RNA polymerase.
Consider B1, for which binding was characterised by a dissociation constant (Kd) of 19.5 ± 1.7 nM.

B2 yielded a dissociation constant Kd of 35 ± 4 nM.

Molecule B3 showed a Kd of 22.5 ± 2.2 nM.

As to B4, the equilibrium dissociation constant (Kd) is 15.1 ± 0.6 nM.

B5: the dissociation constant (Kd) was 58 ± 10 nM.

In the case of B6, the Kd stood at 14 ± 2.3 nM.

B7 had a Kd of 17.6 ± 1.1 nM.

In the case of B8, binding was characterised by a dissociation constant (Kd) of 61 ± 11 nM.

In turn, B9 came in with a Kd of 25 ± 5 nM.

The molecule B10 came in with an equilibrium dissociation constant (Kd) of 13.5 ± 0.8 nM.

With B11, binding was put at a Kd of 3.45 ± 0.26 nM.

B12 displayed an equilibrium dissociation constant (Kd) of 48 ± 4 nM.

Molecule B13 gave a Kd of 13.9 ± 0.7 nM.

In turn, B14 returned a Kd of 52 ± 9 nM.

For the molecule B15, the affinity, expressed as Kd, was 7.6 ± 0.5 nM.

In turn, B16 returned a dissociation constant (Kd) of 44 ± 6 nM.

Molecule B17 showed a Kd of 17.3 ± 1.9 nM.

For the molecule B18, the dissociation constant (Kd) came out at 6.24 ± 0.17 nM.

With B19, the dissociation constant Kd is 12.2 ± 1.1 nM.

For B20, binding was characterised by a dissociation constant (Kd) of 30.4 ± 1.8 nM.

B21: the Kd worked out at 11.8 ± 0.6 nM.

As for B22, the Kd is 22 ± 2 nM.

For the molecule B23, the Kd came to 16.1 ± 0.6 nM.

In general, Kd refers to the free concentration of one partner at which half of the binding sites on the other are occupied at equilibrium, for simple one-to-one binding. Read a low Kd as higher affinity.
